Test results published in the DeepSol protein solubility set.

assay: soluble on expression in E. coli; label from the status in PepcDB or PDB records

| Sequence | soluble on expression in E. coli |
| --- | --- |
| MSLTRKEKPAKVGGFFVLSYVLGGRLAPASPVASDSNIRLPGGYINNSQKTTIDAVRAALSAARMGTFDTAAGVQSDDDPAALLLYAWNAEVSGAFLAPLHVCEVVIRNAVSDALEALYGPRWPWSATFERSLPDPKQGYSPRRDLQSARRSAQTTGKVIPELKFVFWQKMFTGRYDTRIWDQNLRRVMPNIDPAKPVAALRNAIYGDLERVRLLRNRIAHHEPMFARALADDYQTILVLVTYRCAVTAAWLDSHQTATAIITAKPEGHHHHHH | not soluble |
| MGSDKIHHHHHHMEESKELFKDIEKHLLNDVRPSEYLNEQLNKGNLNKYPFTMLSDLVHTEQNKEHHPEGNVWNHTLLVVDKAAENREKSSDKRAFMWGSLLHDIGKAKTTKVRKGKITSYNHDKVGETMSREFLQCFSEDEDFIYKVIKLVRWHMQTLFVVKNMSFADSKNMLKETSLDEIALLSLCDRLGRQPMSNGKIQEEKENVRTFVRKVKELNKV | not soluble |
| MGSSHHHHHHSSGRENLYFQGMHYQPKQDLLNDRIILVTGASDGIGREAAMTYARYGATVILLGRNEEKLRQVASHINEETGRQPQWFILDLLTCTSENCQQLAQRIVVNYPRLDGVLHNAGLLGDVCPMSEQNPQVWQDVMQINVNATFMLTQALLPLLLKSDAGSLVFTSSSVGRQGRANWGAYAASKFATEGMMQVLADEYQQRLRVNCINPGGTRTAMRASAFPTEDPQKLKTPADIMPLYLWLMGDDSRRKTGMTFDAQPGRKPGISQ | soluble |
| MSKRYAVVLAAGQGTRMKSKLYKVLHPVCGKPMVEHVVDQISTLNVDKVVTIVGHGAEKVQEHLAGKSEFVKQDEQLGTAHAVLQAKAELAGKDGVTLVVCGDTPLIEASTMEALLKYHHEKRAKATILTTVIEDPTGYGRIIRDDLGIVEKIVEHKDATEKEQRISEINTGTYCFDNKALFEALENVSNDNVQGEYYLPDVIKILKDSDEVVAAYRMESFEESLGVNDRIALAEASKLMQRRINENHMRNGVTLVNPESTYIDIDVKIGQDTVIEPGVMLRGKTVIGDDCVVTSGSEIVNSVIGERVHVRTSSIFESKVGDDVQIGPYAHLRPESDIHDHVKIGNYVETKKAVVGEGTKLPHFIYMGDAEIGKNVNVGCGSIAVNYDGKNKAKTIIGDNVFVGCNSNLIAPVKVGDRAFIAAGSTITKDVPEDALGIARAKQDNKLGYAKHLNHSK | not soluble |
| MRLKKLYLKGFKSFGRPSLIGFSDRVTAIVGPNGSGKSNIIDAIKWVFGEQSKKELRASEKFDMIFAGSENLPPAGSAYVELVFEENGEEITVARELKRTGENTYYLNGSPVRLKDIRDRFAGTGLGVDFYSIVGQGQIDRIVNASPEELRLESSKHPTSLVPRGSYQRVNESFNRFISLLFFGGEGRLNIVSEAKSILDAGFEISIRKPGRRDQKLSLLSGGEKALVGLALLFALMEIKPSPFYVLDEVDSPLDDYNAERFKRLLKENSKHTQFIVITHNKIVMEAADLLHGVTMVNGVSAIVPVEVEKILEVGSHHHHHH | soluble |
| VALSPLPLPEGLELTGIEGTLWQGQAAQVRWQGMSLGDLNWDLHLSALLLGQLEADIRFGRGSSTQLRGKGVVGVGLSGPYADDFLLSLPAAQAITWLPLPVPLMAQGQLEMAVKQYRFGEPYCQQAEGSLAWSAAQLESPIGALQLGTVVSDFTCQESVVTLKGGQKTAQVSSEFNLSLQPDNRYQAQAWFKPEAEFPESLKEQLSWLPQPDGQGRYPFNQQGQL | not soluble |
| MSKLKKKEYEQELKKLQVELVKLQEWVKHKGLKVVVLFEGRDAAGKGGVIKRITEKLNHRVCRVVALPAPTEKEKTQWYFQRYVAHLPSAGEIVLFDRSWYNRAGVEKVMGFCTPDEYEEFLRSCPEFERMLQRSGIILLKYWFSVSDEEQEKRFLGRINTPIKRWKFSPMDLESRHRWAEYSEAKDKMFAYTDTKNCPWWVVPSDSKQKARLNCISHLLSQIEYKALEYPPIELPEINKEGYVRAPIDDQTFVPDKY | not soluble |
| MRHSSYEHVPNRIIPPHIPIDARRGDFDRRPGPPVPSMRAAILGGSDPYHGFQPVVDTYNGPVVDNSRRRGFDKGPFGEDLTTMGRNEGRQPLLRHPRLDFEHIGGEMEIARSRSASPEIQVISARSVRDDRRRDKPRQRRSSRSRSRDRGDKDHRKPAASRRSDRESTYRERLGSSSGPAAAPDIIRDGMVWANDNYFEFLSFYIEVLNEKLRSSVDRDVKGIREIREVITPATEPEKDRIVLPPNFNRSDRERMLHCDTTITGLPTAIFFGSGYGPREHYAKYSAAKDFFDKCLKIRVMDDELHAAIGEWPRLDRTFKTQFKVNISKSVNAVILLIKRMANEQLPPGFMTMRTLPIDIIDRFKFLLRMVVADVYYQGTESSMAVPKALETGYNTQPYPPNQYPLDTDIRRPSERPSNGPSAEEAARVRDQEIKEQVARELEKRQKVMEQEIRAKILEEERARIQGEAEREKKLELMKAEEQKYQKEKEMKEFEEQQKKAMMTKQVEDDFNVMVEQLEKMFVEVRSKGLNHILDMIYGSATFKTIQLYSSTLTSLSFEQKQKLVQDLRSLLDSVTMGMKVAAVAQMSQAQNPIQGGLFQHQQQQQQPMMSGGGGFVSGVQVVPMQVPMQSYQMPQMQIHHQAFPQPQQLNTTPLLSSSVPMRRDEVRRVTVGDMRLRSLSRSEQRDLRVGNKIIAQDSKTGTWTLATVVKIREDRVTVSVANGTWKKDIDDLYKEDDGSLVY | not soluble |
| MPSKLFSRRSFVTTACAGLAALALPLPAVALTEARAASLVNEVVTEINRVIASGKSENAMIRDFEKLFVRYGDVPIMARYALGPDARTASPAQLKSFTQAFQGYISRKYGKRFREFIGGEVTVKTARKIKAGYEVKTSVKLQGQAPFDVTFLVSDKSGKDKFFNMFIEGVNLLLTERTEIGSMLDRRKGDLNALIRDLASAGLEHHHHHH | soluble |
| MVMTVRVIAPDKTVWDAPAEEVILPSTTGQLGILSNHAPLLTALETGVMRVRQDREWVAIALMGGFAEVENNEVTILVNGAERGDTIDPQEAQQTLEIAEANLRKAEGARQKIEANLALRRARTRVEASNTISS | soluble |
| MGSSHHHHHHSQDPNSAAPAAEAPLSHVQQALAELAKPKDDPTRKHVCVQVAPAVRVAIAETLGLAPGATTPKQLAEGLRRLGFDEVFDTLFGADLTIMEEGSELLHRLTEHLEAHPHSDEPLPMFTSCCPGWIAMLEKSYPDLIPYVSSCKSPQMMLAAMVKSYLAEKKGIAPKDMVMVSIMPCTRKQSEADRDWFCVDADPTLRQLDHVITTVELGNIFKERGINLAELPEGEWDNPMGVGSGAGVLFGTTGGVMEAALRTAYELFTGTPLPRLSLSEVRGMDGIKETNITMVPAPGSKFEELLKHRAAARAEAAAHGTPGPLAWDGGAGFTSEDGRGGITLRVAVANGLGNAKKLITKMQAGEAKYDFVEIMACPAGCVGGGGQPRSTDKAITQKRQAALYNLDEKSTLRRSHENPSIRELYDTYLGEPLGHKAHELLHTHYVAGGVEEKDEKK | soluble |
| MARFNAAFTRIKIMFSRIRGLISCQSNTQTIAPTLSPPSSGHVSFAGIDYPLLPLNHQTPLVFQWFERNPDRFGQNEIPIINTQKNPYLNNIINAAIIEKERIIGIFVDGDFSKGQRKALGKLEQNYRNIKVIYNSDLNYSMYDKKLTTIYLENITKLEAQSASERDEVLLNGVKKSLEDVLKNNPEETLISSHNKDKGHLWFDFYRNLFLLKGSDAFLEAGKPGCHHLQPGGGCIYLDADMLLTDKLGTLYLPDGIAIHVSRKDNHVSLENGIIAVNRSEHPALIKGLEIMHSKPYGDPYNDWLSKGLRHYFDGSHIQDYDAFCDFIEFKHENIIMNTSSLTASSWR | not soluble |
| MMNKNKKLMVMAGGTGGHVFPGLAVAKQLQQQGWQIRWLGTADRMEAELVPKHGIEIDFIQVKGLRGQGLMRLLKAPFQIVNAILQARRHLLTYQPDAVLGMGGYVSGPGGIAAWLLGIPVVLHEQNAVAGLTNQWLAKIARRVFQAFPGAFADASVVGNPVRQDVVQLAAPEQRFATRNGAIRILVMGGSQGARILNQTLPAVMAALGEGYEIRHQAGKNSQQDVAEAYAAAGVESAQVTEFIDDVADAYAWADLLICRSGALTVSEVSAAGVGAIFIPFMHKDRQQALNADHLVACGAAKMIEQPELSVEKLTQMVRELDRAQLLSMAQKARQAAKLDADKVVAQAIIAITE | not soluble |
| MRGSHHHHHHGSATSANTDRIATAELGIAENKKDAQIAKAQANENKDGIAKNQADIQLHDKKITNLGILHSMVARAVGNNTQGVATNKADIAKNQADIANNIKNIYELAQQQDQHSSDIKTLAKVSAANTDRIAKNKAEADASFETLTKNQKLCSQA | soluble |
| MAIPSRSPLASRALSFLGALSLLTFAATPVLAESTPTAAPPQFAVESPKAASSLLLSVAHAGKRLVAVGDRGHILLSDDDGKTWTQAKVPTRQLLTSVFFVNERKGWAVGHDAQILVSDDAGSTWARQFEDLGREAPLLDIWFADEQHGLAVGAYGALLETRDGGQHWEDVSERLDNEDQFHLNAIAAVKDNGLLVVGEAGSLFRSKDWGATWEKLEGPYEGSLFGAIGTADAGGVLVYGLRGHLFRSADFGDSWEEIPLKAASGDLEFGLSDGALLADGRIVVVGHGGSVLESTDGGRSFSVFNRPDRLSLAGVSATGDGHLILVGQGGVHLAAANGAALEQQQLEHHHHHH | soluble |
| MRRLLWLLTLGALAVALTACPRKAEEEAATETAPAEETSLPGANVRVGLAFDAGGKFDRSFNQSAWEGAQRAAQELGVQIFDFEPADPSQVGQGIRTFAEEGFDLVIGVGFANEPAITATAKEFPNVKFAVIDAVPGEGQLPNALGVVFREHEGSFLVGYVAGKLSRTGVVGFIGGMDIPLIHKFEAGFRAGAEYAFQEDGIQGRVLVGYVGNTPAAWNDPAKAKEIASSQARQGADIIYAAAGGSGLGLIDFVKEEMCLREGGAVRFVREDRFADVPKYPAYEEKCGEGTTPLFFIGVDANQNYLGDTDNDPTTLNHGLTSMVKRVDVAVYDTIKSVVDGTFQGGVKDLGLAEEGVGYALDEYNQALIPEEVKARLEELKQAIINGEIQVPETR | soluble |
| MKKWLPAFLFLSLSGCNDALAANQSTMFYSFNDNIYRPQLSVKVTDIVQFIVDINSASSTATLSYVACNGFTWTHGLYWSEYFAWLVVPKHVSYNGYNIYLELQSRGSFSLDAEDNDNYYLTKGFAWDEANTSGQTCFNIGEKRSLAWSFGGVTLNARLPVDLPKGDYTFPVKFLRGIQRNNYDYIGGRYKIPSSLMKTFPFNGTLNFSIKNTGGCRPSAQSLEINHGDLSINSANNHYAAQTLSVSCDVPTNIRFFLLSNTNPAYSHGQQFSVGLGHGWDSIISINGVDTGETTMRWYRAGTQNLTTGSRLYGESSKIQPGVLSGSATLLMILP | soluble |
| THVYNYDIPQDPESYVHRIGRTGRAGATGTSVTFVTNWEMDYLRDVEHLTKKRLLPMKPPTEEEAFAGRAAMAEQSIEELVQKTDVAKFEEQVDHLLEQHDAKTLVAALLNEVTKSDASEIKVKITPERPLPR | not soluble |
| MDALVIRNPELLADALRGLSQSPKRMEPKWFYDAEGSALFERITELPEYYPTRTETAILTAGADRLAAHVPEGAELVELGSGASVKTRLLLDRLTGLSAYVPVDISASFLKETARALARDYPDLPIHPVVADFTKPLRLADEGHPRVGFFPGSTLGNLDPEGARALMRGVRDWPGIRGFIVGIDLIKDEDTLVRAYDDAAGVTAAFNLNLLHRMNREIGADFDPDRFAHRAIWNAEKARIEMHLESLEDQEVQIGPRRIRFRAGETIHTENSHKFSATSFAERAAEAGWRLADFLTDARRQFGVAVLEPA | not soluble |
